The values below come from US11541107B2, “Peptides and T cells for use in immunotherapeutic treatment of various cancers” (Immatics Biotechnologies GmbH, priority 2015, dated 2023).

This test has as its target HLA-A*02 (Homo sapiens, UniProt P04439, D140Y/D185E/D98H/E176V/E277Q/G131W/G231S/I119V/I121R/I166T/I218V/L300P/N151K/N90K/P208A/P217A/Q86G/Q94H/R138H/R169H). The test is described as follows: MHC binding assay, UV-ligand exchange with beta2m ELISA, HLA-A*02. Conditions: binding to HLA-A*02 ranged by peptide exchange yield (UV-ligand exchange, beta2m ELISA). The source says:
Candidate peptides for T cell based therapies according to the present invention were further tested for their MHC binding capacity (affinity). The individual peptide-MHC complexes were produced by UV-ligand exchange, where a UV-sensitive peptide is cleaved upon UV-irradiation, and exchanged with the peptide of interest as analyzed. Only peptide candidates that can effectively bind and stabilize the peptide-receptive MHC molecules prevent dissociation of the MHC complexes. To determine the yield of the exchange reaction, an ELISA was performed based on the detection of the light chain (ß2 m) of stabilized MHC complexes. The assay was performed as generally described in Rodenko et al. (Rodenko et al., 2006).
96 well MAXISorp plates (NUNC) were coated over night with 2 ug/ml streptavidin in PBS at room temperature, washed 4× and blocked for 1 h at 37° C. in 2% BSA containing blocking buffer. […] Peptide-MHC monomers of the UV-exchange reaction were diluted 100 fold in blocking buffer. Samples were incubated for 1 h at 37° C., washed four times, incubated with 2 ug/ml HRP conjugated anti-β2 m for 1h at 37° C., washed again and detected with TMB solution that is stopped with […]. Absorption was measured at 450 nm. Candidate peptides that show a high exchange yield (preferably higher than 50%, most preferred higher than 75%) are generally preferred for a generation and production of antibodies or fragments thereof, and/or T cell receptors or fragments thereof, as they show sufficient avidity to the MHC molecules and prevent dissociation of the MHC complexes.
On the technique in general: An ELISA detects its analyte on a solid surface through an enzyme-linked reagent.
On to “27 (KVFGDLDQV; listed as Homo sapiens) [compound 27]”, for which the Peptide exchange result is recorded as “+++ (50%-75% = +++)”.
To “77 (IVLSTIASV; listed as Homo sapiens) [compound 77]” belongs “+++ (50%-75% = +++)”; to “321 (SLWFKPEEL; listed as Homo sapiens) [compound 321]”, “+++ (50%-75% = +++)”.
The entry for “12 (GLIYEETRGV; listed as Homo sapiens) [compound 12]” is “++ (20%-49% = ++)”; for “24 (FLWNGEDSAL; listed as Homo sapiens) [compound 24]” it is “+++ (50%-75% = +++)”.
Turning to “61 (HLPDFVKQL; listed as Homo sapiens) [compound 61]”, the Peptide exchange entry is given as “++ (20%-49% = ++)”.
The entry for “62 (SLFNQEVQI; listed as Homo sapiens) [compound 62]” is “+++ (50%-75% = +++)”; for “33 (LLLPLLPPLSPSLG; listed as Homo sapiens) [compound 33]” it is “+++ (50%-75% = +++)”; for “323 (ILSVVNSQL; listed as Homo sapiens) [compound 323]” it is “+++ (50%-75% = +++)”.
To “42 (VLSPFILTL; listed as Homo sapiens) [compound 42]” belongs “+++ (50%-75% = +++)”; to “48 (TLDHKPVTV; listed as Homo sapiens) [compound 48]”, “++ (20%-49% = ++)”.
Take “80 (TLDEYLTYL; listed as Homo sapiens) [compound 80]”: the Peptide exchange entry was “+++ (50%-75% = +++)”.
For the substance “59 (ALTKILAEL; listed as Homo sapiens) [compound 59]”, the Peptide exchange entry is “+++ (50%-75% = +++)”.
With “19 (TLLPTVLTL; listed as Homo sapiens) [compound 19]”, the Peptide exchange result was “+++ (50%-75% = +++)”.
Take “44 (GLLWQIIKV; listed as Homo sapiens) [compound 44]”: the Peptide exchange result was “++ (20%-49% = ++)”.
The entry for “11 (GVLKVFLENV; listed as Homo sapiens) [compound 11]” is “++ (20%-49% = ++)”.
Regarding “334 (GRADALRVL; listed as Homo sapiens) [compound 334]”, the Peptide exchange entry is recorded as “+++ (50%-75% = +++)”.
Regarding “21 (SLYHRVLLY; listed as Homo sapiens) [compound 21]”, the Peptide exchange result is listed as “++++ (>=75% = ++++)”.
The entry for “13 (VLRDNIQGI; listed as Homo sapiens) [compound 13]” is “+++ (50%-75% = +++)”; for “29 (TLCNKTFTA; listed as Homo sapiens) [compound 29]” it is “+++ (50%-75% = +++)”.
The entry for “31 (ALSDETKNNWEV; listed as Homo sapiens) [compound 31]” is “++++ (>=75% = ++++)”; for “8 (KLGPFLLNA; listed as Homo sapiens) [compound 8]” it is “+++ (50%-75% = +++)”; for “336 (GLMDGSPHFL; listed as Homo sapiens) [compound 336]” it is “++ (20%-49% = ++)”.
The entry for “47 (GLYQAQVNL; listed as Homo sapiens) [compound 47]” is “+++ (50%-75% = +++)”.
On to “324 (AIFDFCPSV; listed as Homo sapiens) [compound 324]”, for which the Peptide exchange result is “++++ (>=75% = ++++)”.
For the substance “92 (LLRGPPVARA; listed as Homo sapiens) [compound 92]”, the Peptide exchange result is listed as “++ (20%-49% = ++)”.
To “326 (SLLPLVWKI; listed as Homo sapiens) [compound 326]” belongs “+++ (50%-75% = +++)”; to “22 (MLSDLTLQL; listed as Homo sapiens) [compound 22]”, “++++ (>=75% = ++++)”.
The entry for “82 (VLLRVLIL; listed as Homo sapiens) [compound 82]” is “++ (20%-49% = ++)”; for “74 (ILDETLENV; listed as Homo sapiens) [compound 74]” it is “++ (20%-49% = ++)”; for “64 (GLSSSSYEL; listed as Homo sapiens) [compound 64]” it is “++ (20%-49% = ++)”.
To “85 (STLDGSLHAV; listed as Homo sapiens) [compound 85]” belongs “+++ (50%-75% = +++)”; to “3 (TLLGKQVTL; listed as Homo sapiens) [compound 3]”, “+++ (50%-75% = +++)”; to “65 (KLDGICWQV; listed as Homo sapiens) [compound 65]”, “+++ (50%-75% = +++)”.
As to “66 (FITDFYTTV; listed as Homo sapiens) [compound 66]”, the Peptide exchange result is listed as “+++ (50%-75% = +++)”.
Regarding “69 (GIYDGILHSI; listed as Homo sapiens) [compound 69]”, the Peptide exchange entry is on record as “+++ (50%-75% = +++)”.
To “88 (ILLNTEDLASL; listed as Homo sapiens) [compound 88]” belongs “+++ (50%-75% = +++)”.
On to “1 (PLWGKVFYL; listed as Homo sapiens) [compound 1]”, for which the Peptide exchange result is on record as “++ (20%-49% = ++)”.
As for “53 (SLLSHVIVA; listed as Homo sapiens) [compound 53]”, the Peptide exchange result is given as “+++ (50%-75% = +++)”.
In the case of “81 (VLFLGKLLV; listed as Homo sapiens) [compound 81]”, the Peptide exchange result was “++ (20%-49% = ++)”.
To “51 (LLLDGDFTL; listed as Homo sapiens) [compound 51]” belongs “+++ (50%-75% = +++)”; to “93 (SLLTQPIFL; listed as Homo sapiens) [compound 93]”, “+++ (50%-75% = +++)”.
The entry for “90 (GAVAEEVLSSI; listed as Homo sapiens) [compound 90]” is “+ (<20% = +)”; for “335 (VLLAAGPSAA; listed as Homo sapiens) [compound 335]” it is “++ (20%-49% = ++)”; for “36 (KLYGIEIEV; listed as Homo sapiens) [compound 36]” it is “++++ (>=75% = ++++)”.
To “49 (LLDESKLTL; listed as Homo sapiens) [compound 49]” belongs “+++ (50%-75% = +++)”.
“26 (KVDGVVIQL; listed as Homo sapiens) [compound 26]”: the Peptide exchange entry was “+++ (50%-75% = +++)”.
To “20 (ALDGHLYAI; listed as Homo sapiens) [compound 20]” belongs “+++ (50%-75% = +++)”; to “14 (LLDHLSFINKI; listed as Homo sapiens) [compound 14]”, “++ (20%-49% = ++)”.
To “35 (YVLPKLYVKL; listed as Homo sapiens) [compound 35]” belongs “++ (20%-49% = ++)”; to “37 (ALINDILGELVKL; listed as Homo sapiens) [compound 37]”, “+++ (50%-75% = +++)”; to “333 (GTFLEGVAK; listed as Homo sapiens) [compound 333]”, “+++ (50%-75% = +++)”.
The entry for “58 (ALDDSLTSL; listed as Homo sapiens) [compound 58]” is “++ (20%-49% = ++)”.
Turning to “46 (SLAKHGIVAL; listed as Homo sapiens) [compound 46]”, the Peptide exchange result is “+++ (50%-75% = +++)”.
To “18 (YVLNEEDLQKV; listed as Homo sapiens) [compound 18]” belongs “+++ (50%-75% = +++)”; to “50 (EYALLYHTL; listed as Homo sapiens) [compound 50]”, “++ (20%-49% = ++)”; to “40 (SLLALPQDLQA; listed as Homo sapiens) [compound 40]”, “+++ (50%-75% = +++)”.
The entry for “325 (RLLPKVQEV; listed as Homo sapiens) [compound 325]” is “++ (20%-49% = ++)”; for “5 (SLFGQEVYC; listed as Homo sapiens) [compound 5]” it is “+++ (50%-75% = +++)”.
